Test results published in the supplement of paper PMC10724198.
± gives the standard deviation of the averaged measurements.

The sequences below were run on Saccharomyces cerevisiae (assay: protein stability index of tFT-peptide fusion (C-terminal peptide) (PSI (0-1 scale)); higher = more stable (slower turnover)). Settings: genetic background: wild type; temperature: 37 C.
Experimental: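 MPS profiling in S. cerevisiae of the tFT-X12 degron library: putative degron peptides plus stable controls, 12 aa, fused to the C-terminus of a sfGFP-mCherry timer. Cells are FACS-sorted into 8 mCherry/sfGFP bins and deep-sequenced. PSI runs from 0 (unstable) to 1 (stable). Backgrounds are wild type, das1Δ and doa10Δ at 30 °C, and wild type, das1Δ, cdc34-1 and cdc53-1 at 37 °C; 2-3 technical replicates each.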
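Also: PSI is a weighted mean of sequencing reads over stability bins, variants kept only with over 10 reads, mCherry proximal and sfGFP distal, peptide attached via GGGS linker.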

| Sequence | protein stability index |
| --- | --- |
| LAGSSSIVVVFG | 0.496 ± 0.026 |
| LAGVVWVVWCVG | 0.367 ± 0.039 |
| LALTRAAITHFF | 0.496 ± 0.021 |
| LASLSRPFRAKF | 0.916 ± 0.012 |
| LCFLVLLSLLLL | 0.5057 ± 0.0012 |
| LCHILAIIRRGA | 0.624 ± 0.036 |
| LCLRCQCIGTLS | 0.54 ± 0.0091 |
| LCSLSIFVLFSC | 0.272 ± 0.018 |
| LCSVVIFCLVWG | 0.306 ± 0.0083 |
| LCVWRRAIVWVG | 0.0815 ± 0.0071 |
| LFDYEAGEVMGG | 0.779 ± 0.023 |
| LFFFLVWSLSVF | 0.0395 ± 0.013 |
| LFFFVCYLATVK | 0.326 ± 0.0072 |
| LFGFYFVRCLVW | 0.23 ± 0.0099 |
| LFHFPSWIFCLL | 0.308 ± 0.016 |
| LFIRSFLFFSHF | 0.307 ± 0.082 |
| LFLTSFRFLRLF | 0.134 ± 0.03 |
| LFPLLCLLLPSL | 0.628 ± 0.0063 |
| LFTVCMIIQMVH | 0.173 ± 0.016 |
| LFVGLVSFRIGA | 0.575 ± 0.0069 |
| LGCRFCFVGVVG | 0.574 ± 0.022 |
| LGPLGWLVLLLV | 0.354 ± 0.0068 |
| LGWFVDFVFVVW | 0.454 ± 0.0019 |
| LHASCVYTILLV | 0.451 ± 0.0082 |
| LIARYTFLFCLC | 0.488 ± 0.025 |
| LLCGVLFFFWVV | 0.451 ± 0.0076 |

| Sequence | protein stability index |
| --- | --- |
| LLFSVLLLGVGF | 0.475 ± 0.0074 |
| LLGSRFVLIRSL | 0.161 ± 0.009 |
| LLLRSSRLRVLS | 0.149 ± 0.021 |
| LLLRWWLYSCCP | 0.478 ± 0.012 |
| LLPFSLLDLLLC | 0.607 ± 0.0088 |
| LLQCRTGLASGR | 0.718 ± 0.043 |
| LLSGLVFVFVLG | 0.425 ± 0.014 |
| LLSILSSLPLSR | 0.656 ± 0.029 |
| LLVFSLLRPFLF | 0.5623 ± 0.003 |
| LLVLRQYFFFFV | 0.401 ± 0.011 |
| LPCPPSPASLPR | 0.59 ± 0.019 |
| LPHIFFCLFSLL | 0.317 ± 0.015 |
| LPPFRFSLPFRR | 0.71 ± 0.036 |
| LPWLLLISFSYR | 0.378 ± 0.061 |
| LQSYIFSVRGIS | 0.638 ± 0.0012 |
| LRMMLLVTIILE | 0.198 ± 0.026 |
| LRVGVRSWGGKW | 0.439 ± 0.014 |
| LSFYLRAVRASL | 0.673 ± 0.015 |
| LSLFPFLPSPCP | 0.744 ± 0.018 |
| LSRSAGVGVWVG | 0.553 ± 0.026 |
| LSTFFIFLRILR | 0.436 ± 0.05 |
| LVFLYFHFCCGF | 0.5313 ± 0.0006 |
| LVFPPVPSLVLC | 0.3099 ± 0.0013 |
| LVFPRWACSLVF | 0.406 ± 0.019 |
| LVFRVSLVEVVL | 0.334 ± 0.014 |
| LVGLLASWLRFN | 0.199 ± 0.061 |

| Sequence | protein stability index |
| --- | --- |
| LVLALTPFLHSF | 0.551 ± 0.0073 |
| LVLSVWFFNCTS | 0.5196 ± 0.0025 |
| LVRFYGPLPPFP | 0.729 ± 0.011 |
| LVRGGLTNLFLF | 0.47 ± 0.016 |
| LWFFVVVVVRWV | 0.183 ± 0.03 |
| LWRFFFVAFVGI | 0.515 ± 0.018 |
| MALAVRVVFCGA | 0.418 ± 0.01 |
| MALAVRVVICGA | 0.134 ± 0.026 |
| MLCVFVFIWYFV | 0.307 ± 0.02 |
| MLFALLTIVFLG | 0.30056 ± 0.00017 |
| MLTYVVRSLVGY | 0.496 ± 0.018 |
| MWFVGLCLHFFM | 0.499 ± 0.019 |
| NAGSHHAAVKLG | 0.502 ± 0.012 |
| NCMGLLMPLLIT | 0.382 ± 0.012 |
| NFFLLFFFFLSF | 0.512 ± 0.022 |
| PAMPTEPKSSSG | 0.717 ± 0.0095 |
| PFFSSLKYRRDH | 0.197 ± 0.014 |
| PFFVFSFLFLLH | 0.275 ± 0.015 |
| PHRLSRFILRLL | 0.219 ± 0.015 |
| PLCLFPPLLVFL | 0.5103 ± 0.0047 |
| PLFLLTFAITLV | 0.2289 ± 0.00087 |
| PLLLLLPSLLLV | 0.248 ± 0.013 |
| PLRRPSWVVLSS | 0.5802 ± 0.0041 |
| PPIPTPSPIPLH | 0.677 ± 0.015 |
| PPPHPPPATFLS | 0.596 ± 0.026 |
| PPPPPPPSSSSL | 0.727 ± 0.03 |

Each sequence was assayed on Saccharomyces cerevisiae in the same assay as above. Settings: genetic background: wild type; temperature: 30 C.

| Sequence | protein stability index |
| --- | --- |
| LAGSSSIVVVFG | 0.406 ± 0.018 |
| LAGVVWVVWCVG | 0.314 ± 0.06 |
| LALTRAAITHFF | 0.42 ± 0.026 |
| LASLSRPFRAKF | 0.792 ± 0.0093 |
| LCFLVLLSLLLL | 0.528 ± 0.061 |
| LCHILAIIRRGA | 0.509 ± 0.05 |
| LCLRCQCIGTLS | 0.489 ± 0.0097 |
| LCSLSIFVLFSC | 0.25 ± 0.005 |
| LCSVVIFCLVWG | 0.324 ± 0.022 |
| LCVWRRAIVWVG | 0.137 ± 0.039 |
| LFDYEAGEVMGG | 0.717 ± 0.017 |
| LFFFLVWSLSVF | 0.0314 ± 0.029 |
| LFFFVCYLATVK | 0.276 ± 0.053 |
| LFGFYFVRCLVW | 0.226 ± 0.0096 |
| LFHFPSWIFCLL | 0.331 ± 0.0049 |
| LFIRSFLFFSHF | 0.27 ± 0.0052 |
| LFLTSFRFLRLF | 0.162 ± 0.0047 |
| LFPLLCLLLPSL | 0.538 ± 0.065 |
| LFTVCMIIQMVH | 0.177 ± 0.017 |
| LFVGLVSFRIGA | 0.477 ± 0.029 |
| LGCRFCFVGVVG | 0.494 ± 0.033 |
| LGPLGWLVLLLV | 0.292 ± 0.035 |
| LGWFVDFVFVVW | 0.4693 ± 0.0045 |
| LHASCVYTILLV | 0.389 ± 0.0049 |
| LIARYTFLFCLC | 0.444 ± 0.031 |
| LLCGVLFFFWVV | 0.42 ± 0.068 |

| Sequence | protein stability index |
| --- | --- |
| LLFSVLLLGVGF | 0.407 ± 0.035 |
| LLGSRFVLIRSL | 0.185 ± 0.017 |
| LLLRSSRLRVLS | 0.176 ± 0.065 |
| LLLRWWLYSCCP | 0.42 ± 0.034 |
| LLPFSLLDLLLC | 0.488 ± 0.066 |
| LLQCRTGLASGR | 0.518 ± 0.13 |
| LLSGLVFVFVLG | 0.318 ± 0.02 |
| LLSILSSLPLSR | 0.576 ± 0.12 |
| LLVFSLLRPFLF | 0.501 ± 0.016 |
| LLVLRQYFFFFV | 0.295 ± 0.027 |
| LPCPPSPASLPR | 0.498 ± 0.0076 |
| LPHIFFCLFSLL | 0.289 ± 0.026 |
| LPPFRFSLPFRR | 0.712 ± 0.019 |
| LPWLLLISFSYR | 0.286 |
| LQSYIFSVRGIS | 0.533 ± 0.078 |
| LRMMLLVTIILE | 0.188 ± 0.037 |
| LRVGVRSWGGKW | 0.433 ± 0.0069 |
| LSFYLRAVRASL | 0.522 ± 0.035 |
| LSLFPFLPSPCP | 0.748 ± 0.07 |
| LSRSAGVGVWVG | 0.391 ± 0.073 |
| LSTFFIFLRILR | 0.367 ± 0.028 |
| LVFLYFHFCCGF | 0.485 ± 0.017 |
| LVFPPVPSLVLC | 0.352 ± 0.0088 |
| LVFPRWACSLVF | 0.3762 ± 0.00049 |
| LVFRVSLVEVVL | 0.32 ± 0.014 |
| LVGLLASWLRFN | 0.137 ± 0.039 |

| Sequence | protein stability index |
| --- | --- |
| LVLALTPFLHSF | 0.399 ± 0.0069 |
| LVLSVWFFNCTS | 0.424 ± 0.021 |
| LVRFYGPLPPFP | 0.7258 ± 0.0068 |
| LVRGGLTNLFLF | 0.316 ± 0.032 |
| LWFFVVVVVRWV | 0.189 ± 0.053 |
| LWRFFFVAFVGI | 0.421 ± 0.025 |
| MALAVRVVFCGA | 0.371 ± 0.058 |
| MALAVRVVICGA | 0.169 ± 0.0098 |
| MLCVFVFIWYFV | 0.235 ± 0.011 |
| MLFALLTIVFLG | 0.295 ± 0.016 |
| MLTYVVRSLVGY | 0.422 ± 0.029 |
| MWFVGLCLHFFM | 0.3985 ± 0.0019 |
| NAGSHHAAVKLG | 0.399 ± 0.06 |
| NCMGLLMPLLIT | 0.353 ± 0.0039 |
| NFFLLFFFFLSF | 0.415 ± 0.049 |
| PAMPTEPKSSSG | 0.7016 ± 0.0016 |
| PFFSSLKYRRDH | 0.237 ± 0.051 |
| PFFVFSFLFLLH | 0.288 ± 0.054 |
| PHRLSRFILRLL | 0.194 ± 0.041 |
| PLCLFPPLLVFL | 0.462 ± 0.032 |
| PLFLLTFAITLV | 0.272 ± 0.021 |
| PLLLLLPSLLLV | 0.25 ± 0.025 |
| PLRRPSWVVLSS | 0.493 ± 0.0029 |
| PPIPTPSPIPLH | 0.7119 ± 0.0055 |
| PPPHPPPATFLS | 0.479 ± 0.011 |
| PPPPPPPSSSSL | 0.388 ± 0.0099 |
